According to patent publication US20130101549A1 (Biogen, published 2013):

Legend:
human LTβR-Ig [1] = molecular target: T1, human LTβR-Ig (human, UniProt P36941 31-227); test: ELISA, huLTBR-Ig coated at 0.2 ug/ml, HRP anti-Flag mAb; the number is C of the printed 4-P fit (A 0.164, B 0.898, D 1.528, R^2 0.999)
T1 construct: Expressed and purified in house; also called hLTbR-Ig; human LTBR-Ig

murine LTβR-Ig [2] = molecular target: T2, murine LTβR-Ig (mouse, UniProt P50284 31-223); test: ELISA, muLTBR-Ig coated at 2 ug/ml, HRP anti-Flag mAb; the number is C of the printed 4-P fit y=(A-D)/(1+(x/C)^B)+D (A 0.125, B 0.915, D 1.615, R^2 0.999)
T2 construct: Expressed and purified in house; also called mLTbR; murine LTBR-Ig
Description: (§1) Human and murine ErbB2-Fc were obtained from R&D Systems. Wells of 96-well plates were coated with 2 ug/ml or 0.2 ug/ml of human or murine HER2-Fc by incubation overnight at 4-8° C. with either of these six proteins (80 ul/well of a 0.2 or 2 ug/ml solution in PBS). Wells were emptied, filled completely with a solution of PBS with 1% BSA (blocking buffer) and incubated at room temperature for 1 hour. Wells were emptied, washed twice PBS containing 0.05% Tween 20 (PBST) and filled with the samples (80 ul/well of 3× dilution series of the standard and supernatants in blocking buffer) prepared in another 96-well plate. […] After 1-hour incubation, the wells were emptied and filled with a solution of HRP substrate prepared freshly. The color was left to develop for 3 minutes and was stopped by addition of an equal volume of 1N H₂SO₄. Absorbance was measured at 450 nm using a Plate Reader (SpectraMax, Molecular Devices). The data was processed and graphs were created using SoftMax Pro software.
(§2) Human and murine LTBR-Ig were expressed and purified in house.

human HVEM-Ig [3] = molecular target: T3, human HVEM-Ig (human, UniProt Q92956 39-202); test: ELISA, huHVEM-Ig coated at 0.2 ug/ml, HRP anti-Flag mAb; the number is C of the printed 4-P fit (A 0.22, B 1.302, D 1.232, R^2 0.998)
T3 construct: Expressed and purified in house; also called HVEM-Fc; Herpes virus entry mediator-Ig
T3 sequence (looked up): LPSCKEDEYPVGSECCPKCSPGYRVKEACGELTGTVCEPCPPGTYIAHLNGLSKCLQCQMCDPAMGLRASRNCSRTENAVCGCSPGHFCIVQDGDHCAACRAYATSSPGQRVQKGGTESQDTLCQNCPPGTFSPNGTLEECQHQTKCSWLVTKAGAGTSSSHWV
Description: as §1
Human and murine HVEM-Ig were expressed and purified in house.

murine HVEM-Ig [4] = molecular target: T4, murine HVEM-Ig (mouse, UniProt Q80WM9 39-210); test: ELISA, muHVEM-Ig coated at 2 ug/ml, HRP anti-Flag mAb; the number is C of the printed 4-P fit y=(A-D)/(1+(x/C)^B)+D (A 0.143, B 0.757, D 1.559, R^2 0.999)
T4 construct: Expressed and purified in house
T4 sequence (looked up): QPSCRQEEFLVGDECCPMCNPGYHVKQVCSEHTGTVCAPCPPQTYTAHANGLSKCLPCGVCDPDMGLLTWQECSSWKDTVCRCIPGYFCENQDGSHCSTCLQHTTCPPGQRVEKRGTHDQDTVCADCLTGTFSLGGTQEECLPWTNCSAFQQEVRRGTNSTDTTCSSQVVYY

human LTβR-Ig [5] = molecular target: T1, human LTβR-Ig; test: ELISA, huLTBR-Ig coated at 2 ug/ml, HRP anti-Flag mAb; the number is C of the printed 4-P fit y=(A-D)/(1+(x/C)^B)+D (A 0.103, B 0.763, D 1.654, R^2 0.999)
human HVEM-Ig [6] = molecular target: T3, human HVEM-Ig; test: ELISA, huHVEM-Ig coated at 2 ug/ml, HRP anti-Flag mAb; the number is C of the printed 4-P fit y=(A-D)/(1+(x/C)^B)+D (A 0.117, B 0.801, D 1.551, R^2 0.998)
murine LTβR-Ig [7] = molecular target: T2, murine LTβR-Ig; test: ELISA, muLTBR-Ig coated at 0.2 ug/ml, HRP anti-Flag mAb; the number is C of the printed 4-P fit (A 0.044, B 0.606, D 1.329, R^2 0.999); the points end at OD about 1.1 at 10000 ng/ml, upper plateau not reached
Description: as §1, §2

murine HVEM-Ig [8] = molecular target: T4, murine HVEM-Ig; test: ELISA, muHVEM-Ig coated at 0.2 ug/ml, HRP anti-Flag mAb; the number is C of the printed 4-P fit (A 0.027, B 0.575, D 1.071, R^2 0.994)
human LTβR-Ig [9] = molecular target: T1, human LTβR-Ig; test: ELISA on LTbR-Ig, dilutions of medium of transfected CHO cells

T1 sequence (P36941 31-227): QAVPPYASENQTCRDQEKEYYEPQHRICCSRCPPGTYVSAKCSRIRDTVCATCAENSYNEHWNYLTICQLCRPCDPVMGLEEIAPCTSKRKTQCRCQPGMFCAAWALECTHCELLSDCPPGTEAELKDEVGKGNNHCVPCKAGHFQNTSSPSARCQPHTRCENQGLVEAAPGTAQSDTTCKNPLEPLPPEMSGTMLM
T2 sequence (P50284 31-223): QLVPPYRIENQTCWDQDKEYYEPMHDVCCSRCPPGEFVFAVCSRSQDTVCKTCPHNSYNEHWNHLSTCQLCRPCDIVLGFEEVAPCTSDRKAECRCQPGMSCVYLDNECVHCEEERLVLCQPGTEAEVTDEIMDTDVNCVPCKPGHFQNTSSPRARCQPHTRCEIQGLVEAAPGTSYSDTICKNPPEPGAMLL

B1: huLight (ligand, human, UniProt O43557 66-240, looked up)
ligand chain: GEMVTRLPDGPAGSWEQLIQERRSHEVNPAAHLTGANSSLTGSGGPLLWETQLGLAFLRGLSYHDGALVVTKAGYYYIYSKVQLGGVGCPLGLASTITHGLYKRTPRYPEELELLVSQQSPCGRATSSSRVWWDSSFLGGVVHLEAGEKVVVRVLDERLVRLRDGTRSYFGAFMV
notes: soluble, Flag-tagged; also called Flag-huLIGHT (control)
**Q.** How did the EC50 (human LTβR-Ig [1]) turn out when B1 was run?
**A.** 1.33 ng/mL

**Q.** What about the EC50 (murine LTβR-Ig [2]) of the same binder?
**A.** 2.39 ng/mL

**Q.** What about the EC50 (human HVEM-Ig [3]) of the same binder?
**A.** 1.27 ng/mL

**Q.** And the EC50 (murine HVEM-Ig [4])?
**A.** 1.34 ng/mL

**Q.** And the EC50 (human LTβR-Ig [5])?
**A.** 2.1 ng/mL

**Q.** What about the EC50 (human HVEM-Ig [6]) of the same binder?
**A.** 1.3 ng/mL

**Q.** What about the EC50 (murine LTβR-Ig [7]) of the same binder?
**A.** 810 ng/mL

**Q.** What about the EC50 (murine HVEM-Ig [8]) of the same binder?
**A.** 18.6 ng/mL

B2: anti-IGFR C06 Fab-hLIGHT fusion protein (C06-hLIGHT) (other)
heavy: EVQLLESGGGLVQPGGSLRLSCAASGFTFSIYRMQWVRQAPGKGLEWVSGISPSGGTTWYADSVKGRFTISRDNSKNTLYLQMNSLRAEDTAVYYCARWSGGSGYAFDIWGQGTMVTVSSASTKGPSVFPLAPSSKSTSGGTAALGCLVKDYFPEPVTVSWNSGALTSGVHTFPAVLQSSGLYSLSSVVTVPSSSLGTQTYICNVNHKPSNTKVDKKVEPKSCDKGGGGSGGGGSGGGGSGGGGSNPAAHLTGANSSLTGSGGPLLWETQLGLAFLRGLSYHDGALVVTKAGYYYIYSKVQLGGVGCPLGLASTITHGLYKRTPRYPEELELLVSQQSPCGRATSSSRVWWDSSFLGGVVHLEAGEEVVVRVLDERLVRLRDGTRSYFGAFMV
light: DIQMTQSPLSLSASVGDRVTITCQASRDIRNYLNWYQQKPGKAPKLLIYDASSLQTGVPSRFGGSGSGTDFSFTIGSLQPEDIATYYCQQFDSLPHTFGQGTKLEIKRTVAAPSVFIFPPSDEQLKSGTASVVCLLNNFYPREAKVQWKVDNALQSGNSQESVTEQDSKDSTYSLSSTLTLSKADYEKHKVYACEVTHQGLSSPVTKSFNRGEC
notes: Tested as culture medium of transiently transfected CHO cells; not measured for this fusion; also called pBIIBC06-256
**Q.** Does B2 bind (human LTβR-Ig [9])?
**A.** binds
